The results in this text go back to publication PMC10786891, “Massively parallel profiling of RNA-targeting CRISPR-Cas13d”.

Sequences and labels used below:
B1: target 1 C7G,U19C (mixed)
RNA 1: CACCCGUGCAAAAAUGCAGGGGUCUAAAACUGAGCGGAUAACCUCUCUAUGG
RNA 2: GGGAAUGGAUCCACAUCUACGAAUUCGUACCACAGAGAGGUUAUGCGCUCACCGAGAUCGGAAGAGCACACGU
B2: target 1 U8C,U19G (mixed)
RNA 1: B1 RNA 1
RNA 2: B1 RNA 2 with C33G, U44C, G45C
B3: target 1 insA 3' of 15,insU 3' of 7 (mixed)
RNA 1: B1 RNA 1
RNA 2: GGGAAUGGAUCCACAUCUACGAAUUCGUACCAUAGAGAAGGUUAUCUCGCUCACCGAGAUCGGAAGAGCACACGU
B4: target 1 U3A,U8A (mixed)
RNA 1: B1 RNA 1
RNA 2: B1 RNA 2 with C33U, U44A, G45C, U49A
B5: target 1 C4A,G13U (mixed)
RNA 1: B1 RNA 1
RNA 2: B1 RNA 2 with C33U, G39U, G45C, C48A
B6: target 1 U10A,A16U (mixed)
RNA 1: B1 RNA 1
RNA 2: B1 RNA 2 with C33U, A36U, U42A, G45C
B7: target 1 C2G,C4A (mixed)
RNA 1: B1 RNA 1
RNA 2: B1 RNA 2 with C33U, G45C, C48A, C50G
B8: target 1 insC 3' of 14,insA 3' of 2 (mixed)
RNA 1: B1 RNA 1
RNA 2: B3 RNA 2 with A39C, U47C, C48G, G49C, C50U, U51C, C52A
B9: target 1 C6U,G17U (mixed)
RNA 1: B1 RNA 1
RNA 2: B1 RNA 2 with C33U, G35U, G45C, C46U
B10: target 1 insU 3' of 12 (mixed)
RNA 1: B1 RNA 1
RNA 2: GGGAAUGGAUCCACAUCUACGAAUUCGUACCAUAGAGAGGUUUAUCCGCUCACCGAGAUCGGAAGAGCACACGU
B11: target 1 insG 3' of 20,insA 3' of 7 (mixed)
RNA 1: B1 RNA 1
RNA 2: B3 RNA 2 with U33G, A34U, G35A, A36G, G37A, A38G, U47A
B12: target 1 insU 3' of 5,insU 3' of 5 (mixed)
RNA 1: B1 RNA 1
RNA 2: B3 RNA 2 with A39G, G41U, U43A, A44U, U45C, U47G, C48U, G49U
B13: target 1 A9G (mixed)
RNA 1: B1 RNA 1
RNA 2: B1 RNA 2 with C33U, A43G, G45C
B14: target 1 C6U,U11C (mixed)
RNA 1: B1 RNA 1
RNA 2: B1 RNA 2 with C33U, U41C, G45C, C46U
B15: target 1 insA 3' of 12,insG 3' of 8 (mixed)
RNA 1: B1 RNA 1
RNA 2: B3 RNA 2 with A39G, G41A, C46G, U47C
B16: target 1 C6U,U19A (mixed)
RNA 1: B1 RNA 1
RNA 2: B1 RNA 2 with C33A, G45C, C46U
B17: target 1 insA 3' of 13,insC 3' of 5 (mixed)
RNA 1: B1 RNA 1
RNA 2: B3 RNA 2 with A39G, G40A, U47C, C48G, G49C
B18: target 1 G13A,G17U (mixed)
RNA 1: B1 RNA 1
RNA 2: B1 RNA 2 with C33U, G35U, G39A, G45C
B19: target 1 insC 3' of 14,insA 3' of 11 (mixed)
RNA 1: B1 RNA 1
RNA 2: B3 RNA 2 with A39C, U43A, A44U, U45A, C46U, U47C
B20: target 1 insG 3' of 14,insG 3' of 11 (mixed)
RNA 1: B1 RNA 1
RNA 2: B3 RNA 2 with A39G, U43G, A44U, U45A, C46U, U47C
B21: target 1 insC 3' of 8,insG 3' of 2 (mixed)
RNA 1: B1 RNA 1
RNA 2: GGGAAUGGAUCCACAUCUACGAAUUCGUACCAUAGAGAGGUUAUCCCGCUCGACCGAGAUCGGAAGAGCACACGU
B22: target 1 insC 3' of 17,insG 3' of 6 (mixed)
RNA 1: B1 RNA 1
RNA 2: B3 RNA 2 with A36C, G37A, A38G, U47C, C48G
B23: target 1 insU 3' of 12,insG 3' of 4 (mixed)
RNA 1: B1 RNA 1
RNA 2: B3 RNA 2 with A39G, G41U, U47C, C48G, G49C, C50G
B24: target 1 insC 3' of 20,insC 3' of 1 (mixed)
RNA 1: B1 RNA 1
RNA 2: GGGAAUGGAUCCACAUCUACGAAUUCGUACCACUAGAGAGGUUAUCCGCUCACCCGAGAUCGGAAGAGCACACGU
B25: target 1 C7U,U11G (mixed)
RNA 1: B1 RNA 1
RNA 2: B1 RNA 2 with C33U, U41G, G45U
B26: target 1 insC 3' of 14,insC 3' of 5 (mixed)
RNA 1: B1 RNA 1
RNA 2: B3 RNA 2 with A39C, U47C, C48G, G49C
B27: target 1 insC 3' of 11,insC 3' of 3 (mixed)
RNA 1: B1 RNA 1
RNA 2: B21 RNA 2 with U42C, A43U, U44A, C45U, G52C
B28: target 1 insA 3' of 21,insG 3' of 19 (mixed)
RNA 1: B1 RNA 1
RNA 2: B3 RNA 2 with U33A, A34U, A39G, G40A, U42G, A44U, U45A, C46U, U47C
B29: target 1 insU 3' of 9,insG 3' of 9 (mixed)
RNA 1: B1 RNA 1
RNA 2: B3 RNA 2 with A39G, G41U, U43A, A44U, U45G, C46U, U47C
B30: target 1 insC 3' of 18,insU 3' of 6 (mixed)
RNA 1: B1 RNA 1
RNA 2: B3 RNA 2 with G35C, A36G, G37A, A38G, U47C, C48U
B31: target 1 A14G,G17U (mixed)
RNA 1: B1 RNA 1
RNA 2: B1 RNA 2 with C33U, G35U, A38G, G45C
B32: target 1 del9,del15 (mixed)
RNA 1: B1 RNA 1
RNA 2: GGGAAUGGAUCCACAUCUACGAAUUCGUACCAUAGAAGGUUUCCGCUCACCGAGAUCGGAAGAGCACACGU
B33: target 1 insA 3' of 13,insC 3' of 11 (mixed)
RNA 1: B1 RNA 1
RNA 2: B3 RNA 2 with A39G, G40A, U43C, A44U, U45A, C46U, U47C

Substitutions are numbered along the chain they refer to. Names may count otherwise.

The target of this data set is T1, EsCas13d, nuclease-dead (Eubacterium siraeum, UniProt B0MS50, R295A;H300A;R849A;H854A).
T1 sequence: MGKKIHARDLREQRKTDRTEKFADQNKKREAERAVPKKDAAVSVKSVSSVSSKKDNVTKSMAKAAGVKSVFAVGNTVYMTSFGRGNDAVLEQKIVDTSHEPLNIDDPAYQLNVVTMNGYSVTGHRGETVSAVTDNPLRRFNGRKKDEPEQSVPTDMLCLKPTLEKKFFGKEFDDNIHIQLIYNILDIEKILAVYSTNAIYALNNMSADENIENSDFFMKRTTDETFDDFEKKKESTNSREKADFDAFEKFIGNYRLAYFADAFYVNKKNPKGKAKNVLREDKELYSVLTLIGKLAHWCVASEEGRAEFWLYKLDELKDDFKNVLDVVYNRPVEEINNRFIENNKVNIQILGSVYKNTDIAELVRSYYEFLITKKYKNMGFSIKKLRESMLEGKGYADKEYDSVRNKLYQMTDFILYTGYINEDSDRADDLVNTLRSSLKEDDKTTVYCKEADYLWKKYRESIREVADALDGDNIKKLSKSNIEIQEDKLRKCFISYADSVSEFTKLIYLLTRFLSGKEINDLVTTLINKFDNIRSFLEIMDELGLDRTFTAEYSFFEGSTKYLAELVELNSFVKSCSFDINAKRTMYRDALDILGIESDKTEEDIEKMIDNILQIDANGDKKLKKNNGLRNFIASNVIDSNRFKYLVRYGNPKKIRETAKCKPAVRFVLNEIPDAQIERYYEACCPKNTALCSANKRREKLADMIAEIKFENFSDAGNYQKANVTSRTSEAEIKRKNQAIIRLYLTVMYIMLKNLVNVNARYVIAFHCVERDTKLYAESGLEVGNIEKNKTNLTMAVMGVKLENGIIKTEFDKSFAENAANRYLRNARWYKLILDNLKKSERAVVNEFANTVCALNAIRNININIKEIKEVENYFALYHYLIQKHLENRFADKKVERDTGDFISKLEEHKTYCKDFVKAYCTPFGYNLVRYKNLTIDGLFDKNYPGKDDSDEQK
Kind of data set: crRNA (strand 1, pre-loaded); Mg2+; 40 mM Tris-HCl pH 7.5, 150 mM NaCl, 6 mM MgCl2, 1 mM DTT, 0.1% Tween-20, 0.2 mg/ml BSA; 25 C; 10 min per concentration, then washed. To be noted: tags: His6-TwinStrep-SUMO cleaved; N-terminal SNAP kept (SNAP-Surface 488); label: 3' end held by stalled T7 RNA polymerase.
Molecule B1 came in with a Kd of 32.2 ± 2.7 nM.
The result for B2 reads 76 ± 10 nM.
The result for B3 reads 13.5 ± 0.9 nM; that for B4, 10.6 ± 0.5 nM.
The result for B5 reads around 70 nM; that for B6, 42 ± 4 nM.
The molecule B7 returned a dissociation constant Kd of 6.94 ± 0.32 nM.
For the molecule B8, the Kd is 52 ± 13 nM.
B9 had a Kd of 22.3 ± 1.5 nM.
In turn, B10 registered an equilibrium dissociation constant (Kd) of 7.54 ± 0.28 nM.
B11 had a dissociation constant Kd of 26.1 ± 3 nM.
Under B12 stands 19 ± 4 nM; under B13, 13.2 ± 0.4 nM; under B14, 9.1 ± 0.6 nM.
Consider B15, for which the affinity, expressed as Kd, was 32 ± 2.7 nM.
Under B16 stands 34.9 ± 2.4 nM.
B17 displayed a Kd of 3.35 ± 0.18 nM.
Under B18 stands 28.6 ± 2.7 nM; under B19, 42 ± 5 nM.
Consider B20, for which the Kd came out at 20.7 ± 0.9 nM.
The result for B21 reads 21 ± 1.5 nM.
The result for B22 reads 43 ± 8 nM; that for B23, 4.6 ± 0.17 nM; that for B24, 8 ± 0.5 nM.
For B25, binding was characterised by a dissociation constant (Kd) of 9.7 ± 0.6 nM.
Under B26 stands 75 ± 17 nM; under B27, 28.9 ± 2.7 nM; under B28, 51 ± 5 nM.
Molecule B29 returned a Kd of 13.2 ± 0.5 nM.
Under B30 stands 39 ± 4 nM.
The result for B31 reads 78 ± 15 nM.
B32 showed a dissociation constant (Kd) of 44 ± 6 nM.
Turning to B33, the dissociation constant Kd turned out to be 7.8 ± 0.6 nM.

A word on the Kd: it is a measure of binding affinity in units of concentration.
